Measurements published in patent US8450054B2, “Modified Luciola cruciata luciferase gene and protein” (Marker Gene Technologies, Inc., priority 2008, dated 2013).

Tests used:
[1] = Thermal stability of modified Luciola cruciata luciferase protein versus wild type protein (residual luminescence of cell lysates after incubation); conditions: for stability of the protein relative to wild type: 37° C.
Protocol: (§1) Transfected NIH 3T3 cells prepared in Example 4 were lysed using a lysis buffer comprised of 25 mM Tris-phosphate (pH 7.8), containing 10% glycerol, 1% Triton X-100, 1 mg/ml BSA, 2 mM EGTA and 2 mM DTT. Cells were washed with 1× Phosphate Buffered Saline, and lysis buffer (1 mL) was added to surface of plate. Plate was incubated for 30 mins, and lysate was collected. Additionally, NIH 3T3 cells were transfected with pSV40-GL3, a construct containing wild type luciferase from Photinus pyralis, as per the method in Example 4 and lysed using the above method. As a negative control, untransfected NIH 3T3 cells were also lysed by the above method.
(§2) Cell lysates were diluted using lysis buffer, and added in triplicate to wells of a solid white 96-well plate (Costar). Added to cell lysates was a reagent containing 1 mM D-luciferin and 2 mM ATP in a buffer comprised of 25 mM Glycylglycine, 15 mM MgSO4, 4 mM EDTA, 15 mM Potassium phosphate pH 7.8, 1 mM DTT, and 1 mM Coenzyme A.
(§3) Luminescence was recorded using a Perkin-Elmer HTS7000 Plus Bio Assay Reader (200 ms integration time).
Cell lysates from NIH 3T3 cells transfected with pDC99 and pSV40-GL3 (transfected according to method in Example 4), as well as untransfected cells were prepared as described in Example 5a. Luminescence of each sample was recorded as described in Example 5a to obtain a baseline value of enzyme activity. Portions of each sample were then incubated in water baths at 37° C., 42° C., and 55° C. A portion of each sample was also incubated at ambient room temperature (25° C.). At 1 hour and 2 hour intervals, aliquots of each temperature-incubation were removed and assayed for activity using the method described in Example 5a.

[2] = system: NIH 3T3 cells; test: Luciferase expression levels in transfected mammalian cells (luminescence of lysates); assay type: cell-based, murine; conditions: mammalian cell systems
Protocol: NIH 3T3 cells (murine […] fibroblasts) were grown to 80% confluence in 100 mm tissue culture plates. Cells were transfected with either pDC57 or pDC99 using Lipofectamine and PLUS reagents (Invitrogen).
as §1, §2, §3

B1: modified luciferase: Luciola cruciata luciferase with Ser to Tyr change at position 286, amino acid sequence SEQ ID NO:4, encoded by codon optimized gene SEQ ID NO:3 (protein, listed as Luciola cruciata)
chain: MENMENDENIVVGPKPFYPIEEGSAGTQLRKYMERYAKLGAIAFTNAVTGVDYSYAEYLEKSCCLGKALQNYGLVVDGRIALCSENCEEFFIPVIAGLFIGVGVAPTNEIYTLRELVHSLGISKPTIVFSSKKGLDKVITVQKTVTTIKTIVILDSKVDYRGYQCLDTFIKRNTPPGFQASSFKTVEVDRKEQVALIMNSSGSTGLPKGVQLTHENTVTRFSHARDPIYGNQVSPGTAVLTVVPFHHGFGMFTTLGYLICGFRVVMLTKFDEETFLKTLQDYKCTYVILVPTLFAILNKSELLNKYDLSNLVEIASGGAPLSKEVGEAVARRFNLPGVRQGYGLTETTSAIIITPEGDDKPGASGKVVPLFKAKVIDLDTKKSLGPNRRGEVCVKGPMLMKGYVNNPEATKELIDEEGWLHTGDIGYYDEEKHFFIVDRLKSLIKYKGYQVPPAELESVLLQHPSIFDAGVAGVPDPVAGELPGAVVVLESGKNMTEKEVMDYVASQVSNAKRLRGGVRFVDEVPKGLTGKIDGRAIREILKKPVAKM
[1]; after 1 hour
  stability of the protein relative to wild type: > 100 fold
[1]; after 2 hours
  stability of the protein relative to wild type: > 1000 fold
[1]; room temperature
  thermostability compared with wild-type protein: greater thermostability
[2]
  expression level compared to native luciferase: higher expression levels
